Source: PMC1851384, “Involvement of maternal embryonic leucine zipper kinase (MELK) in mammary carcinogenesis through interaction with Bcl-G, a pro-apoptotic member of the Bcl-2 family” (Breast Cancer Research, 2007)

Molecular target: T1, His-tagged wild-type MELK recombinant protein (human, UniProt Q14680-1 1-651)
T1 construct: pET21a usually adds a C-terminal His6 tag; also called WT-MELK; His-tagged WT-MELK; source: E. coli BL21 codon-plus (DE3) RIL, purified (Ni-NTA superflow, nondenaturing)
Test: pull-down; in vitro binding assay: 10 ug His-tagged MELK held by anti-6XHis antibody on protein G Sepharose; 5 ug Bcl-GL recombinant protein in 500 ul binding buffer (50 mM Tris, 75 mM NaCl, 10 mM MgCl2, 1 mM DTT, 2% BSA, 100 uM ATP), 30 minutes at 4°C; blot with anti-Bcl-GL
Details: both partners purified

T1 sequence (Q14680 whole entry): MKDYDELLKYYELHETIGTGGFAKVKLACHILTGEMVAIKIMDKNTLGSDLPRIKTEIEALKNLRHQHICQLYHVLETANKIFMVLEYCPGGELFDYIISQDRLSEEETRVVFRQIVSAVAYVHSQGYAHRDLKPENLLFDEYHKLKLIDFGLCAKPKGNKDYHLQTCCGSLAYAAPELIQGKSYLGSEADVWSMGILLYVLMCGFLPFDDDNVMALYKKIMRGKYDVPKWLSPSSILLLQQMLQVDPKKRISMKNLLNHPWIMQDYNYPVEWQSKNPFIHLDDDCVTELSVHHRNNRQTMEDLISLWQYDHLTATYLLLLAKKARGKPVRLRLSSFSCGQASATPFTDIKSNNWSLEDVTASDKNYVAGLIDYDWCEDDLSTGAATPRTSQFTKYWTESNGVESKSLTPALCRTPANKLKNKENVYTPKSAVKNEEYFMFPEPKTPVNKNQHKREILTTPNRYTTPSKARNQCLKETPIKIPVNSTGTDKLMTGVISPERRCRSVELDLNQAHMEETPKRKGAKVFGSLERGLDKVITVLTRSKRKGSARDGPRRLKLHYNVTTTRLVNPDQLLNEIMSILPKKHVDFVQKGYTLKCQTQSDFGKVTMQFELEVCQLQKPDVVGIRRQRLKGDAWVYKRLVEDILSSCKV

- binding result: binds
B1: Bcl-GL recombinant protein (GST removed) (natural protein, human, UniProt Q9BZR8-1 1-327, looked up)
chain: MCSTSGCDLEEIPLDDDDLNTIEFKILAYYTRHHVFKSTPALFSPKLLRTRSLSQRGLGNCSANESWTEVSWPCRNSQSSEKAINLGKKKSSWKAFFGVVEKEDSQSTPAKVSAQGQRTLEYQDSHSQQWSRCLSNVEQCLEHEAVDPKVISIANRVAEIVYSWPPPQATQAGGFKSKEIFVTEGLSFQLQGHVPVASSSKKDEEEQILAKIVELLKYSGDQLERKLKKDKALMGHFQDGLSYSVFKTITDQVLMGVDPRGESEVKAQGFKAALVIDVTAKLTAIDNHPMNRVLGFGTKYLKENFSPWIQQHGGWEKILGISHEEVD
notes: source: E. coli BL21 codon-plus RIL, purified (Glutathione Sepharose 4B), GST removed with PreScission protease
